Results on three molecules are retold here after patent publication US20160272683A1 (Novo Nordisk, published 2016).

B1: [N-terminal(C18 diacid), 5I, 9I]mimylin (peptide)
peptide: {C18 diacid}-EASEISTAILGRLSAELHELATLPRTETGPESP-NH2
SMILES: CC[C@H](C)[C@H](NC(=O)[C@H](C)NC(=O)[C@@H](NC(=O)[C@H](CO)NC(=O)[C@@H](NC(=O)[C@H](CCC(=O)O)NC(=O)[C@H](CO)NC(=O)[C@H](C)NC(=O)[C@H](CCC(=O)O)NC(=O)CCCCCCCCCCCCCCCCC(=O)O)[C@@H](C)CC)[C@@H](C)O)C(=O)N[C@@H](CC(C)C)C(=O)NCC(=O)N[C@@H](CCCNC(=N)N)C(=O)N[C@@H](CC(C)C)C(=O)N[C@@H](CO)C(=O)N[C@@H](C)C(=O)N[C@@H](CCC(=O)O)C(=O)N[C@@H](CC(C)C)C(=O)N[C@@H](Cc1c[nH]cn1)C(=O)N[C@@H](CCC(=O)O)C(=O)N[C@@H](CC(C)C)C(=O)N[C@@H](C)C(=O)N[C@H](C(=O)N[C@@H](CC(C)C)C(=O)N1CCC[C@H]1C(=O)N[C@@H](CCCNC(=N)N)C(=O)N[C@H](C(=O)N[C@@H](CCC(=O)O)C(=O)N[C@H](C(=O)NCC(=O)N1CCC[C@H]1C(=O)N[C@@H](CCC(=O)O)C(=O)N[C@@H](CO)C(=O)N1CCC[C@H]1C(N)=O)[C@@H](C)O)[C@@H](C)O)[C@@H](C)O
B2: [N-terminal(C18 diacid), 5V, 9V]mimylin (peptide)
peptide: {C18 diacid}-EASEVSTAVLGRLSAELHELATLPRTETGPESP-NH2
SMILES: CC(C)C[C@H](NC(=O)[C@H](CCC(=O)O)NC(=O)[C@H](Cc1c[nH]cn1)NC(=O)[C@H](CC(C)C)NC(=O)[C@H](CCC(=O)O)NC(=O)[C@H](C)NC(=O)[C@H](CO)NC(=O)[C@H](CC(C)C)NC(=O)[C@H](CCCNC(=N)N)NC(=O)CNC(=O)[C@H](CC(C)C)NC(=O)[C@@H](NC(=O)[C@H](C)NC(=O)[C@@H](NC(=O)[C@H](CO)NC(=O)[C@@H](NC(=O)[C@H](CCC(=O)O)NC(=O)[C@H](CO)NC(=O)[C@H](C)NC(=O)[C@H](CCC(=O)O)NC(=O)CCCCCCCCCCCCCCCCC(=O)O)C(C)C)[C@@H](C)O)C(C)C)C(=O)N[C@@H](C)C(=O)N[C@H](C(=O)N[C@@H](CC(C)C)C(=O)N1CCC[C@H]1C(=O)N[C@@H](CCCNC(=N)N)C(=O)N[C@H](C(=O)N[C@@H](CCC(=O)O)C(=O)N[C@H](C(=O)NCC(=O)N1CCC[C@H]1C(=O)N[C@@H](CCC(=O)O)C(=O)N[C@@H](CO)C(=O)N1CCC[C@H]1C(N)=O)[C@@H](C)O)[C@@H](C)O)[C@@H](C)O
B3: [N-terminal(C18 diacid-gGlu), des1, 30S]mimylin (peptide)
peptide: {C18 diacid-γGlu}-ASELSTAALGRLSAELHELATLPRTETGSESP-NH2
SMILES: CC(C)C[C@H](NC(=O)[C@H](C)NC(=O)[C@H](C)NC(=O)[C@@H](NC(=O)[C@H](CO)NC(=O)[C@H](CC(C)C)NC(=O)[C@H](CCC(=O)O)NC(=O)[C@H](CO)NC(=O)[C@H](C)NC(=O)CC[C@H](NC(=O)CCCCCCCCCCCCCCCCC(=O)O)C(=O)O)[C@@H](C)O)C(=O)NCC(=O)N[C@@H](CCCNC(=N)N)C(=O)N[C@@H](CC(C)C)C(=O)N[C@@H](CO)C(=O)N[C@@H](C)C(=O)N[C@@H](CCC(=O)O)C(=O)N[C@@H](CC(C)C)C(=O)N[C@@H](Cc1c[nH]cn1)C(=O)N[C@@H](CCC(=O)O)C(=O)N[C@@H](CC(C)C)C(=O)N[C@@H](C)C(=O)N[C@H](C(=O)N[C@@H](CC(C)C)C(=O)N1CCC[C@H]1C(=O)N[C@@H](CCCNC(=N)N)C(=O)N[C@H](C(=O)N[C@@H](CCC(=O)O)C(=O)N[C@H](C(=O)NCC(=O)N[C@@H](CO)C(=O)N[C@@H](CCC(=O)O)C(=O)N[C@@H](CO)C(=O)N1CCC[C@H]1C(N)=O)[C@@H](C)O)[C@@H](C)O)[C@@H](C)O

Numbered stars: 1 amine (or outer) side, 2 acyl side, 3 side chain; on linkers, the order of the positions; unused ones are H or OH. * marks the point of attachment. C18 diacid = O=C(O)CCCCCCCCCCCCCCCCC(=O)*; γGlu = O=C(O)[C@H](CCC(=O)[*:2])N[*:1]

For this experiment, the target named is T1, human amylin receptor (human calcitonin receptor + human RAMP3) (human) (UniProt P30988).
T1 sequence (looked up) 1: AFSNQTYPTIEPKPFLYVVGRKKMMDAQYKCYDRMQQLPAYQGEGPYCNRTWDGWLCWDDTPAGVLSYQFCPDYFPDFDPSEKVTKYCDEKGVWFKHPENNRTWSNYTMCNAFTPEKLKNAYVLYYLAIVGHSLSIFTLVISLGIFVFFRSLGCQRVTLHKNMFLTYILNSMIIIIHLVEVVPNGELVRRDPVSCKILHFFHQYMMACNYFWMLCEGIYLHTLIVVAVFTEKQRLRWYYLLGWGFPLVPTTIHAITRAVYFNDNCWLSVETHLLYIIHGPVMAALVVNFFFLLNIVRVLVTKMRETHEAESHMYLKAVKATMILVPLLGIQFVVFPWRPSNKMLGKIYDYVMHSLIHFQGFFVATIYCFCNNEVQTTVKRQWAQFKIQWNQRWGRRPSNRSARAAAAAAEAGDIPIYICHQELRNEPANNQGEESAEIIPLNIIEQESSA
T1 sequence (looked up) 2: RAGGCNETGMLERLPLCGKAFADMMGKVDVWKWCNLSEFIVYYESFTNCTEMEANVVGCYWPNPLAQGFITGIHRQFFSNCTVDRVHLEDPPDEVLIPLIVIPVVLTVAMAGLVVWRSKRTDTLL
The experiment can be described thus: whole-cell competition vs 125I-rat amylin (Assay Va).
In the case of B1, the IC50 worked out at 0.4 nM.
The same measure for B2: 0.824 nM; for B3: 0.83 nM.
